Experimental data from patent publication US12324826B2, “Compositions and methods to mitigate or prevent an immune response to an immunogenic therapeutic molecule in non-human primates” (Jomoco, Corp, priority 2015, dated 2025).

Columns and labels:
[1] = tested on: ADA against the potentially immunogenic therapeutic agent; test: NHP preclinical pharmacokinetic study: ADA development with immunosuppressant plus immunogenic therapeutic agent; assay type: in vivo
Experimental: Administration of a basiliximab loading dose on Day 0 of the NHP preclinical pharmacokinetic study is followed on Day 1 by administration of a basiliximab maintenance dose and the potentially immunogenic therapeutic agent. Basiliximab is dosed approximately every 10 days to maintain a serum concentration at which CD25 is almost completely bound by basiliximab (about 200 ug/mL). The therapeutic agent is dosed at the proscribed interval and dose.
Administration of a nanocarrier encapsulated rapamycin (NER) loading dose on Day −2, −1, or 0 of the NHP preclinical pharmacokinetic study is followed on Day 0 by administration the potentially immunogenic therapeutic agent. NER and the therapeutic agent are then co-administered at the proscribed dose and intervals of every 1-4 weeks for as many as 12 weeks, following which the immunogenic therapeutic agent may be administered without NER.
Basiliximab is dosed approximately every 10 days to maintain a serum concentration at which CD25 is almost completely bound by basiliximab (about 200 ug/mL). Rapamycin is dosed daily or every other day during the course of basiliximab administration to maintain a rapamycin trough level within the range of 4-12 ng/mL. Following this treatment regimen, the immunogenic therapeutic agent may be administered without the immunosuppressant combination.

[2] = tested on: ADA against the potentially immunogenic therapeutic agent
Experimental: Administration of a basiliximab loading dose on Day 0 of the NHP toxicology study is followed on Day 1 by administration of a basiliximab maintenance dose and the potentially immunogenic therapeutic agent. Basiliximab is dosed approximately every 10 days to maintain a serum concentration at which CD25 is almost completely bound by basiliximab (about 200 ug/mL). The therapeutic agent is dosed at the proscribed interval and dose.
Administration of a nanocarrier encapsulated rapamycin (NER) loading dose on Day −2, −1, or 0 of the NHP toxicology study is followed on Day 0 by administration the potentially immunogenic therapeutic agent. NER and the therapeutic agent are then co-administered at the proscribed dose and intervals of every 1-4 weeks for as many as 12 weeks, following which the immunogenic therapeutic agent may be administered without NER.
Basiliximab is dosed approximately every 10 days to maintain a serum concentration at which CD25 is almost completely bound by basiliximab (about 200 ug/mL). Rapamycin is dosed daily or every other day during the course of basiliximab administration to maintain a rapamycin trough level within the range of 4-12 ng/mL. Following this treatment regimen, the immunogenic therapeutic agent may be administered without the immunosuppressants.

basiliximab
development of ADA in the immunosuppressant treated group ([1]; NHP given immunosuppressant and potentially immunogenic therapeutic agent, compared with control group given therapeutic agent alone): no ADA develops or the level of ADA is sufficiently low | pharmacokinetic parameters of the therapeutic agent in the immunosuppressant treated group ([1]; NHP given immunosuppressant and therapeutic agent, altered in the control group due to ADA): unaltered | development of ADA ([2]; NHP toxicology study, immunosuppressant plus therapeutic agent, compared with therapeutic agent alone): prevents the development of ADA | immune mediated drug induced liver injury (DILI) in the group given immunosuppressant and therapeutic agent ([2]; in vivo): develop immune mediated drug induced liver injury (DILI)
